{
  "source": "the supplement of paper PMC10567573",
  "data": [
    {"experiment": "protein stability index of a GFP-peptide fusion (GPS, HEK-293T) (PSI 1-6); higher = more stable", "conditions": "parent: NP_002788.1; c terminus: native", "values": [
      {"protein": "DGWIRVSSDNVADLHEKYSGSTPN", "note": "[PSMB5 addN]", "protein stability index": 4.04},
      {"protein": "DGWIRVSSDNVADLHEKYSGSTPV", "note": "[PSMB5 addV]", "protein stability index": 4.27}
    ]},
    {"experiment": "protein stability index of a GFP-peptide fusion (GPS, HEK-293T) (PSI 1-6); higher = more stable", "conditions": "parent: NP_006221.1; c terminus: native", "values": [
      {"protein": "CQPISFSGFGAEDDDLGGLGLGPN", "note": "[POLD2 addN]", "protein stability index": 1.99},
      {"protein": "CQPISFSGFGAEDDDLGGLGLGPV", "note": "[POLD2 addV]", "protein stability index": 3}
    ]},
    {"experiment": "protein stability index of a GFP-peptide fusion (GPS, HEK-293T) (PSI 1-6); higher = more stable", "conditions": "parent: NP_009172.2; c terminus: native", "values": [
      {"protein": "LPALFTDLYSQEITAEEAREALPV", "note": "[SNF8 addV]", "protein stability index": 3.9},
      {"protein": "LPALFTDLYSQEITAEEAREALPN", "note": "[SNF8 addN]", "protein stability index": 4.75}
    ]},
    {"experiment": "protein stability index of a GFP-peptide fusion (GPS, HEK-293T) (PSI 1-6); higher = more stable", "conditions": "parent: NP_116010.1; c terminus: native", "values": [
      {"protein": "HSLRAVSTDPPHHDHHDEFCLMPV", "note": "[BEX2 addV]", "protein stability index": 3.68},
      {"protein": "HSLRAVSTDPPHHDHHDEFCLMPN", "note": "[BEX2 addN]", "protein stability index": 4.18}
    ]},
    {"experiment": "protein stability index of a GFP-peptide fusion (GPS, HEK-293T) (PSI 1-6); higher = more stable", "conditions": "parent: NP_015628.1; c terminus: native", "values": [
      {"protein": "EQRNSRWNTVLRAVKAKTHHLEPN", "note": "[TRPA1 addN]", "protein stability index": 4.57},
      {"protein": "EQRNSRWNTVLRAVKAKTHHLEPV", "note": "[TRPA1 addV]", "protein stability index": 4.23}
    ]}
  ]
}
